Consider 1 substance from patent publication US20120282257A1.

For test [1], the target named is human CD99 on live/intact cells (human) (UniProt P14209). In words: flow cytometry, live TC-71 cells (Ewing sarcoma). A general note: In flow cytometry, cells or beads pass a laser one at a time.
The target is the same in test [2]. In words: flow cytometry, live U2-OS cells (osteosarcoma).
For test [3] the target is unchanged. In words: flow cytometry, live HSSC168 cells (mesenchymal).
For test [4] the target is unchanged. Kind of test: flow cytometry, live HSSC163 cells (mesenchymal).
Test [5] has the same target. Kind of test: flow cytometry, PBMC.
Test [6] shares this target. Kind of test: flow cytometry, live MG-63 cells (osteosarcoma).
The target is the same in test [7]. Kind of test: flow cytometry, live RM-82 cells (Ewing sarcoma).
Test [8] has the same target. In words: flow cytometry, live SKES-1 cells (Ewing sarcoma).
Test [9] shares this target. In words: flow cytometry, live MOS cells (osteosarcoma).
The target is the same in test [10]. Kind of test: flow cytometry, live IOR/OS7 cells (osteosarcoma).
Test [11] has the same target. Kind of test: flow cytometry, live H-825 cells (Ewing sarcoma).
Test [12] shares this target. Kind of test: flow cytometry, live RD-ES cells (Ewing sarcoma).

Sequence of UniProt P14209 (P14209 23-185): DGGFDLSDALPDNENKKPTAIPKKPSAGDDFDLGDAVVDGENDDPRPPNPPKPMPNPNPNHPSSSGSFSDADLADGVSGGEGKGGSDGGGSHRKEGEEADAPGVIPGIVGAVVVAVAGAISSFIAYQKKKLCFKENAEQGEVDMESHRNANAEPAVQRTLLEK

Regarding mAbO13 (antibody), the percent of cells positive in [1] was 75 to 100%; in [2], 50 to 75%; in [3], 75 to 100%; in [4], 50 to 75%; in test [5] it was 75 to 100%; in [6], 75 to 100%. Besides, the percent of cells positive in test [7], in [8], in test [9], in [10], in test [11] and in test [12] was 75 to 100% throughout.
